This note sets out measurements from the DeepSol protein solubility set.

The nature of this series: soluble on expression in E. coli; label from the status in PepcDB or PDB records.
Turning to “MSLSKLKVSVFSKHLQFLQGEELAKATAAIGFDGVDLAVRKGGHVEPATVAKDLPALVAILRKNGLEVPMITTDIADTDTPFTEDLLKAASALGIRYYRFGAYKWSAEKPYAAQLEIMKPKLAKLAALNAKYQMCAMYHTHSGVGVVGASIWDLWYMMKDLDPKLMGMNYDVGHATIEGGLGGWIDSFKIAGNYVRGIAVKDFAWEKDPKGGQRSQWKPIGEGTVKFPQFYGMVAATDFAGPFQMHFEYPLGGANNGTRTLTVPKEEVHAAMKKDLDKTRAMLAQAGLEGHHHHHH”, the “soluble on expression in E. coli” value is reported as “not soluble”. “MSLSLRRIDHVSLRVRDVEEASRRWSAQFGLAVRERDGRRARLACDDEPYCLELLAAEAPGVEHVAYELRRSCTLEEAGRHFEGLGVPYEEHAGGLRVADPDGNRVLVLPYREPRERWVSHARAATDQIVGHPRRLGHVNFLTGRLSEGVEFYTRALGMRITDWLGEGGVWFHINADHHVMALVDKGYPHFHHLAFDVVDIGQMRVALDHLGRHGRWLGWGPVRHGIGGNIASYVRIVEEECFVELYCDMEQLEADHEVRRWPDNRFSSNTWGPLPPRSYFRFDEAAVASERESLEMLGHPLKEEVSSEGHHHHHH”: the “soluble on expression in E. coli” value is reported as “soluble”. With “MSLSLSHFRITRFQFARDRVIGDSQVRADDVNVAALELVSESGEVGLGFIQTLFNPLPDQQEIESVFEHEVWPSLKGNRAIALVHRVNRPRGGNQRAYSLPFHEAVQVALWDLAAKEAGLPLHVLLGSRRNRVKAYASGLDFHLDDDAFVSLFSHAASIGYSAFKIKVGHRDFDRDLRRLELLKTCVPAGSKVMIDPNEAWTSKEALTKLVAIREAGHDLLWVEDPILRHDHDGLRTLRHAVTWTQINSGEYLDLQGKRLLLEAHAADILNVHGQVTDVMRIGWLAAELGIPISIGNTFLEAGVHMAVALPEVEWLEYSFQNFDHLVEQPIEIRDGYAYAPDRPGHGLVLSEKARGEWSRPRRLARSELGAAPENPRLPAKEGHHHHHH” the entry was “soluble”; with “MSLSNKIVLTSPDRKTTRLLEKVRKEYDFKIDAYEATFDDAVELIRGKVAHREHWDPIIATGGATLGLLRDNLGRMPWVNIFPTEYDLVIALEQAKKTKKTIGLFNPGQIDTEAIKAVCSAIQIDAHIYRYNSWKEVLVQVEKAYQDGVEVAIGAGEKISSAVERKNIQYVSVTSGEYTIRRAFKYAQLLVDLKRNEKVSHEEGHHHHHH”, “not soluble”; with “MSLSPVPPPLVRVAPSLFLGSARAAGAEEQLARAGVTLCVNVSRQQPGPRAPGVAELRVPVFDDPAEDLLAHLEPTCAAMEAAVRAGGACLVYCKNGRSRSAAVCTAYLMRHRGLSLAKAFQVGGPLGGRCFERGVSSGDEFSGRGRLRDWDRHFREGRVSLMVKSARPVAEPNPGFWSQLQKYEEALQAQSEGHHHHHH”, “not soluble”.

Turning to “MSLSQDGLLGEVLSEGVLTLTLGRAPAHPLSRAMIAALHDALRRAMGDDHVHVLVIHGPGRIFCAGHDLKEIGRHRADPDEGRAFVTDLFEACSALMLDLAHCPKPTIALVEGIATAAGLQLMAACDLAYASPAARFCLPGVQNGGFCTTPAVAVSRVIGRRAVTEMALTGATYDADWALAAGLINRILPEAALATHVADLAGALAARNQAPLRRGLETLNRHLELPLEQAYALATPVMVEHFMDPGRRHLDWIDEGHHHHHH”, the “soluble on expression in E. coli” value is “soluble”. In the case of “MSLSQRTYGYGRVSTDEQTTSQQLTAIREAGHKVSDNRFIVDEGVSGGVCAMERPAFRNLVENKLEKGDTLVIAKLDRLGRDNIDVQQVVQMLTDKGIKLFILDLPVADLSSPEGKLMLQMFATFAEFEKNRISERIRDKLKQLKQEGKALGRPTKNVYDDVQELKAQGISQRTIADKLNVSLSTVRRNWVDTKRSLEVVTESGEGHHHHHH”, the “soluble on expression in E. coli” value is “soluble”. As to “MSLSSASSKRSVMTLFSNKDDIYCHQVKIVLAEKGVLYENAEVDLQALPEDLMELNPYGTVPTLVDRDLVLFNSRIIMEYLDERFPHPPLMQVYPVSRAKDRLLMLRIEQDWYPTLAKAENGTEKEKTSALKQLKEELLGIAPIFQQMPYFMNEEFGLVDCYVAPLLWKLKHLGVEFTGTGSKAIKAYMERVFTRDSFLQSVGEAAPKNLMDDKEGHHHHHH”, the “soluble on expression in E. coli” value was “soluble”.

In the case of “MSLSSDSGNSSGKTTIEWWNITTTEPAKKLWAQRAKEFEAAHPDVKIKIVTLENEAYKSKMTAQTASGKLPDIYHTWGGGVLEQQIDAGLVEDLTDRVSSWTDTYVPAALAAYRFDSRTYAVPFDIGAVGFWYNKALFKQAGIDTPPTTWSGFLDAVRSLKSAGITPIALAGKEKWPGMYYWAYLSMRVAGLDAMHKAATDADFTGDGFVKAGQHLKDLVALQPFQKGFLGAGYSTPTGEAAAMGNGKAAMELMGQWAPVVEKDAGKGLGKDLGFFSFPAVEGGKGALTEVFGGGGGHAVRKGAPEAAVEFLKFFGEKEFAGKLVKETGLIPVSKDARGALTDPNLTAVSDALNAATGFQLYLDQAYAPAVGQEINDSVAALVAGSKSPQQVTRSVTQVAKSEKSEGHHHHHH”, the “soluble on expression in E. coli” value is “not soluble”. On to “MSLSSGEHEASRVLRERDYRWEGTEEEAYKAEGTHFSGARRQTLVGRPAGQEAPAFETRYFEVEPGGYTTLERHEHTHVVMVVRGHAEVVLDDRVEPLTPLDCVYIAPHAWHQIHATGANEPLGFLCIVDSDRDRPQRPDADDLARMCADPAVARRIRTEGHHHHHH”, for which the “soluble on expression in E. coli” value is listed as “soluble”. As for “MSLSSLEGQENSFTINSVDMKSLPDWTVQNGKNLTLQCFADVSTTSHVKPQHQMLFYKDDVLFYNISSMKSTESYFIPEVRIYDSGTYKCTVIVNNKEKTTAEYQLLVEGVPSPRVTLDKKEAIQGGIVRVNCSVPEEKAPIHFTIEKLELNEKMVKLKREKNSRDQNFVILEFPVEEQDRVLSFRCQARIISGIHMQTSESTKSELVTVTESFSTPKFHISPTGMIMEGAQLHIKCTIQVTHLAQEFPEIIIQKDKAIVAHNRHGNKAVYSVMAMVEHSGNYTCKVESSRISKVSSIVVNITELFSKPELESSFTHLDQGERLNLSCSIPGAPPANFTIQKEDTIVSQTQDFTKIASKSDSGTYICTAGIDKVVKKSNTVQIVVCEMLSEGHHHHHH”, the “soluble on expression in E. coli” value is “not soluble”.

On to “MSLSSPNLSFYYNECERFESFLKNHHLHLESFHPYLEKAFFEMVLNGGKRFRPKLFLAVLCALVGQKDYSNQQTEYFKIALSIECLHTYSLIHDDLPCMDNAALRRNHPTLHAKYDETTAVLIGDALNTYSFELLSNALLESHIIVELIKILSANGGIKGMILGQALDCYFENTPLNLEQLTFLHEHKTAKLISASLIMGLVASGIKDEELFKWLQAFGLKMGLCFQVLDDIIDVTQDEEESGKTTHLDSAKNSFVNLLGLERANNYAQTLKTEVLNDLDALKPAYPLLQENLNALLNTLFKGEGHHHHHH”, for which the “soluble on expression in E. coli” value is “soluble”. With “MSLSTLKREQIKKDLKDQEFDVVIIGGGITGAGIALDASERGMKVALVEMQDFAQGTSSRSTKLVHGGLRYLKQLQVGVVAETGRERAIVYENGPHVTTPERMLLPMHKGGSMGKFTTSIGLAMYDRLAGVKKAERKTMLNAKETLEKEPLVKKAGLKGGGSYVEYRTDDARLTIEVMKRAEEKGAKVINHTKSVHFTYDSNEKVNGIQVEDQISNETYPIKAKKVINASGPWVDEVRSGDYARNNKQLRLTKGVHIVIDQSKFPLGQAVYFDTEKDGRMIFAIPREGKAYVGTTDTFYDNNKTSPLANQEDRDYLIDAINYMFPDVNVADEDIESSWAGVRPLILEEGKDPSEISRKDEVWEGKSGLLTIAGGKLTGYRHMALEIVDLLSKRLKSEFGLKFDKCATKHLTISGGDVGGSANFDKFIEQKVEEAKSYQIDESTARHFASKYGSNAEELFKIAQTAQYQETGLPLDIYTELVYSIQNEMVYRPTDFFIRRTGKLYFKIDDVLNYKEQVIDVMAGLLGYTNIEKEAYTKELQIAIDEAQTGNHQPAVKELEHHHHHH” the entry was “not soluble”. With “MSLSTMLVAEDLSAVGGISLSSALPVLTAMQYDVAALPTSLLSTHTSGYGTPAVVDLSTWLPQVFAHWTRAQLHFDQALIGYVGSVALCQQITTYLEQQTLSLLVVDPVLGDLGQLYQGFDQDYVAAMRQLIQQADVILPNTTEAALLTGAPYQVTPDLEVILPALQAQLKTGAHAVITDVQRADQIGCAWLDEAGHVQYCGARRLPGHYNGTGDTLAAVIAGLLGRGYPLAPTLARANQWLNMAVAETIAQNRTDDRQGEGHHHHHH” the entry was “not soluble”. As for “MSLSTYTTGELAKHVGVSVRTIQYYDQRGLLTPMTTAGGRREYTAQDIERLQLILVLKSMGLKLAAIKDILNSPNATDVLQLLLTEQVQRLRQDQAATTTQLKTVIAVQKALAVSGPFPLESIHDMDQLMTNQQREGHHHHHH”, the “soluble on expression in E. coli” value is recorded as “not soluble”.

In the case of “MSLSWADKYRPKNIDDVILNSEIRKQITEWIESWKEGIPKKRSLILYGSQGTGKTTTAYAIAGTFGVPVVEMNASDQRNRDSMRGTALMASLYGDLFVESAKRPSKVILIDEADNMFERGGDTGGIYELSKIIKNSANPIVITMNDIFEFRKKNYASDVISASLTIEMKQYGRKLDKNYNEFRRNIKARLIFILKNEGYTLPDQVVDRIIDRNMPDIRSMINDLEASAVSGTNISDEGHHHHHH”, the “soluble on expression in E. coli” value was “soluble”. For “MSLTAGKMNVKEKIKDIHFYRAVSDISRPIADSTHTISQIGFYIVELMTAEGVRGQGYVLSFHYSPGAMEGALRDVCSFISAGEYAVYDTVLARADWDREAEYFGNTGINNCAIAAVNLAMWDAWGHTCRQPVWKMLGANRRRIPVYGSGGWISYTDQELLEEVLDYKKRGFKAVKIKVGSGSIERDAERLAKCREALGDSVKIMMDANQGFNVPDALELARRASSMGIQWFEEPVVHTDYAGYQLLRNQCGIALAMGEREYDFEALKQLSVRNALDLWQPDIVRLGGVEAWRESAALAEAFGLPVLPHYYKDYDVPLLCTVRSPYGAESFDWIDGIIDNAMEIENGFASPREGDGWGFRFREECMTEVEGHHHHHH”, the “soluble on expression in E. coli” value is recorded as “soluble”.

In the case of “MSLTASPIVVFDLDGTLIDTAPDLINALNFILVREGMPAVPMAVARNMIGQGARRLLERGLELDGRVIAQDDVNRLTVDFIDYYAAHIADESRPFEGLEATLDELSESGYRFAVCTNKLEWLSKLLLDRLGLSPRFAAICGADTFGVAKPDPAILRETVAKAGGDLSAAIMVGDAGPDVGVARRAGVPVIGVEFGYTEVPIAELQPDLLVGHMRELPNAVGRLLPRREGHHHHHH”, the “soluble on expression in E. coli” value is on record as “soluble”.

Turning to “MSLTDAETAVMPDRTNTSRDHAKRYVRHFLADFAKLDQEYPRTYPRMIVRGEGAYVIDEEGRRILDAGSHLGACQIGHGHPEVADRIHQQVRNIEFIALDAGISHVYAAALGERLAKMVLCDDPVFSFTNSGSESNELAFKIARQYHRRRGQPGRVKIFSRNGSYHGSTLATSAATGAAPFKEGFGPLPEGFIQGAQPSPGRCGHCGFNDACSLACLDDFERLIMAEGSETVAAVIAEPIAIPQAVKVPPPDYFVRLRKFCDDHGILLIIDEVVCGFGRTGRMFGAEHFGVHGDIVTFAKGLTSGYVPMGAVAVARHVEEVFKNAPLLHLNTYAGHPVACAAAMAVLDIMERERLVLHSARMEPILRRELQRLQNAVARVRYLSVIGLLSSVIVDISDRPDPDAVIRRVRNIAYDNGLLARVARDGALLSVHFYPPLVVAEQDIVAGVRALEIALRMIEGHHHHHH”, the “soluble on expression in E. coli” value is reported as “not soluble”.
